In IntAct's records for PubMed 22244754:

B1: Phosphatidylinositol 3,4,5-trisphosphate 5-phosphatase 2 (Homo sapiens), O15357-1 (parent)
chain: MASACGAPGPGGALGSQAPSWYHRDLSRAAAEELLARAGRDGSFLVRDSESVAGAFALCVLYQKHVHTYRILPDGEDFLAVQTSQGVPVRRFQTLGELIGLYAQPNQGLVCALLLPVEGEREPDPPDDRDASDGEDEKPPLPPRSGSTSISAPTGPSSPLPAPETPTAPAAESAPNGLSTVSHDYLKGSYGLDLEAVRGGASHLPHLTRTLATSCRRLHSEVDKVLSGLEILSKVFDQQSSPMVTRLLQQQNLPQTGEQELESLVLKLSVLKDFLSGIQKKALKALQDMSSTAPPAPQPSTRKAKTIPVQAFEVKLDVTLGDLTKIGKSQKFTLSVDVEGGRLVLLRRQRDSQEDWTTFTHDRIRQLIKSQRVQNKLGVVFEKEKDRTQRKDFIFVSARKREAFCQLLQLMKNKHSKQDEPDMISVFIGTWNMGSVPPPKNVTSWFTSKGLGKTLDEVTVTIPHDIYVFGTQENSVGDREWLDLLRGGLKELTDLDYRPIAMQSLWNIKVAVLVKPEHENRISHVSTSSVKTGIANTLGNKGAVGVSFMFNGTSFGFVNCHLTSGNEKTARRNQNYLDILRLLSLGDRQLNAFDISLRFTHLFWFGDLNYRLDMDIQEILNYISRKEFEPLLRVDQLNLEREKHKVFLRFSEEEISFPPTYRYERGSRDTYAWHKQKPTGVRTNVPSWCDRILWKSYPETHIICNSYGCTDDIVTSDHSPVFGTFEVGVTSQFISKKGLSKTSDQAYIEFESIEAIVKTASRTKFFIEFYSTCLEEYKKSFENDAQSSDNINFLKVQWSSRQLPTLKPILADIEYLQDQHLLLTVKSMDGYESYGECVVALKSMIGSTAQQFLTFLSHRGEETGNIRGSMKVRVPTERLGTRERLYEWISIDKDEAGAKSKAPSVSRGSQEPRSGSRKPAFTEASCPLSRLFEEPEKPPPTGRPPAPPRAAPREEPLTPRLKPEGAPEPEGVAAPPPKNSFNNPAYYVLEGVPHQLLPPEPPSPARAPVPSATKNKVAITVPAPQLGHHRHPRVGEGSSSDEESGGTLPPPDFPPPPLPDSAIFLPPSLDPLPGPVVRGRGGAEARGPPPPKAHPRPPLPPGPSPASTFLGEVASGDDRSCSVLQMAKTLSEVDYAPAGPARSALLPGPLELQPPRGLPSDYGRPLSFPPPRIRESIQEDLAEEAPCLQGGRASGLGEAGMSAWLRAIGLERYEEGLVHNGWDDLEFLSDITEEDLEEAGVQDPAHKRLLLDTLQLSK

Variants of: B1
Settings: with epha2_human EPHA2, P29317
Chain of epha2_human EPHA2, P29317 (P29317 whole entry): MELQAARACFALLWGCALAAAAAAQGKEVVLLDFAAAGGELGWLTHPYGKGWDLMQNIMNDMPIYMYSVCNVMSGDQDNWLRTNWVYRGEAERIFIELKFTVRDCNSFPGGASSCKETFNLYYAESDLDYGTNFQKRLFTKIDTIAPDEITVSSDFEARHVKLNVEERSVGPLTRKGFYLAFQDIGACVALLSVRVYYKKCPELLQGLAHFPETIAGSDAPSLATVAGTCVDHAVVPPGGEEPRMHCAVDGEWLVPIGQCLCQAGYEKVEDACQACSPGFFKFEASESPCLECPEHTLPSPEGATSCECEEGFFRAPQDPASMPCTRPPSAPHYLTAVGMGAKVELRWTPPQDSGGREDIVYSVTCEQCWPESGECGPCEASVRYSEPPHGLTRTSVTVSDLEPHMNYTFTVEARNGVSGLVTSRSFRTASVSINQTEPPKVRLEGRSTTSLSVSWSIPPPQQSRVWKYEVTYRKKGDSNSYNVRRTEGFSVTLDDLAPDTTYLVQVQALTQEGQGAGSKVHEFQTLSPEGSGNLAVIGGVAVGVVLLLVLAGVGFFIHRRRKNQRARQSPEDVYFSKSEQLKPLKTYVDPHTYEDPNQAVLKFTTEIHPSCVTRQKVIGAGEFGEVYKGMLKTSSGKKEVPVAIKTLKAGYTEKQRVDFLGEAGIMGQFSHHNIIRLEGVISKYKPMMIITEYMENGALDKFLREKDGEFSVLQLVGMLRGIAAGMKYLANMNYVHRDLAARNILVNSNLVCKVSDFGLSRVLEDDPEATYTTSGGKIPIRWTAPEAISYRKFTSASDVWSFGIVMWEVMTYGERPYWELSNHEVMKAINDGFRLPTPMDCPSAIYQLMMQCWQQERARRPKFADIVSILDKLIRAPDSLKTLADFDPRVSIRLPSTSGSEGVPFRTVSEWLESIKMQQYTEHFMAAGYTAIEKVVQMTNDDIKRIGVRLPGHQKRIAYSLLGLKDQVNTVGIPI

| Variant | effect of a mutation on the interaction |
| --- | --- |
| D1223A;D1224A | disrupting interaction |

Variants of: B1
Settings: with epha2_human EPHA2, P29317
Remark: another data set of the same source

| Variant | effect of a mutation on the interaction |
| --- | --- |
| H1219S | increasing interaction |
